Measured values as given in US20250304919A1 (MASSEY VENTURES, published 2025).

Target: T1, human fibronectin (human, UniProt P02751 32-2477)
T1 construct: also called Fn; analyte
Test: lateral flow dipstick; reference LOD of 6.4 ng/mL is cited from the literature

T1 sequence (P02751 32-2477 limits assumed): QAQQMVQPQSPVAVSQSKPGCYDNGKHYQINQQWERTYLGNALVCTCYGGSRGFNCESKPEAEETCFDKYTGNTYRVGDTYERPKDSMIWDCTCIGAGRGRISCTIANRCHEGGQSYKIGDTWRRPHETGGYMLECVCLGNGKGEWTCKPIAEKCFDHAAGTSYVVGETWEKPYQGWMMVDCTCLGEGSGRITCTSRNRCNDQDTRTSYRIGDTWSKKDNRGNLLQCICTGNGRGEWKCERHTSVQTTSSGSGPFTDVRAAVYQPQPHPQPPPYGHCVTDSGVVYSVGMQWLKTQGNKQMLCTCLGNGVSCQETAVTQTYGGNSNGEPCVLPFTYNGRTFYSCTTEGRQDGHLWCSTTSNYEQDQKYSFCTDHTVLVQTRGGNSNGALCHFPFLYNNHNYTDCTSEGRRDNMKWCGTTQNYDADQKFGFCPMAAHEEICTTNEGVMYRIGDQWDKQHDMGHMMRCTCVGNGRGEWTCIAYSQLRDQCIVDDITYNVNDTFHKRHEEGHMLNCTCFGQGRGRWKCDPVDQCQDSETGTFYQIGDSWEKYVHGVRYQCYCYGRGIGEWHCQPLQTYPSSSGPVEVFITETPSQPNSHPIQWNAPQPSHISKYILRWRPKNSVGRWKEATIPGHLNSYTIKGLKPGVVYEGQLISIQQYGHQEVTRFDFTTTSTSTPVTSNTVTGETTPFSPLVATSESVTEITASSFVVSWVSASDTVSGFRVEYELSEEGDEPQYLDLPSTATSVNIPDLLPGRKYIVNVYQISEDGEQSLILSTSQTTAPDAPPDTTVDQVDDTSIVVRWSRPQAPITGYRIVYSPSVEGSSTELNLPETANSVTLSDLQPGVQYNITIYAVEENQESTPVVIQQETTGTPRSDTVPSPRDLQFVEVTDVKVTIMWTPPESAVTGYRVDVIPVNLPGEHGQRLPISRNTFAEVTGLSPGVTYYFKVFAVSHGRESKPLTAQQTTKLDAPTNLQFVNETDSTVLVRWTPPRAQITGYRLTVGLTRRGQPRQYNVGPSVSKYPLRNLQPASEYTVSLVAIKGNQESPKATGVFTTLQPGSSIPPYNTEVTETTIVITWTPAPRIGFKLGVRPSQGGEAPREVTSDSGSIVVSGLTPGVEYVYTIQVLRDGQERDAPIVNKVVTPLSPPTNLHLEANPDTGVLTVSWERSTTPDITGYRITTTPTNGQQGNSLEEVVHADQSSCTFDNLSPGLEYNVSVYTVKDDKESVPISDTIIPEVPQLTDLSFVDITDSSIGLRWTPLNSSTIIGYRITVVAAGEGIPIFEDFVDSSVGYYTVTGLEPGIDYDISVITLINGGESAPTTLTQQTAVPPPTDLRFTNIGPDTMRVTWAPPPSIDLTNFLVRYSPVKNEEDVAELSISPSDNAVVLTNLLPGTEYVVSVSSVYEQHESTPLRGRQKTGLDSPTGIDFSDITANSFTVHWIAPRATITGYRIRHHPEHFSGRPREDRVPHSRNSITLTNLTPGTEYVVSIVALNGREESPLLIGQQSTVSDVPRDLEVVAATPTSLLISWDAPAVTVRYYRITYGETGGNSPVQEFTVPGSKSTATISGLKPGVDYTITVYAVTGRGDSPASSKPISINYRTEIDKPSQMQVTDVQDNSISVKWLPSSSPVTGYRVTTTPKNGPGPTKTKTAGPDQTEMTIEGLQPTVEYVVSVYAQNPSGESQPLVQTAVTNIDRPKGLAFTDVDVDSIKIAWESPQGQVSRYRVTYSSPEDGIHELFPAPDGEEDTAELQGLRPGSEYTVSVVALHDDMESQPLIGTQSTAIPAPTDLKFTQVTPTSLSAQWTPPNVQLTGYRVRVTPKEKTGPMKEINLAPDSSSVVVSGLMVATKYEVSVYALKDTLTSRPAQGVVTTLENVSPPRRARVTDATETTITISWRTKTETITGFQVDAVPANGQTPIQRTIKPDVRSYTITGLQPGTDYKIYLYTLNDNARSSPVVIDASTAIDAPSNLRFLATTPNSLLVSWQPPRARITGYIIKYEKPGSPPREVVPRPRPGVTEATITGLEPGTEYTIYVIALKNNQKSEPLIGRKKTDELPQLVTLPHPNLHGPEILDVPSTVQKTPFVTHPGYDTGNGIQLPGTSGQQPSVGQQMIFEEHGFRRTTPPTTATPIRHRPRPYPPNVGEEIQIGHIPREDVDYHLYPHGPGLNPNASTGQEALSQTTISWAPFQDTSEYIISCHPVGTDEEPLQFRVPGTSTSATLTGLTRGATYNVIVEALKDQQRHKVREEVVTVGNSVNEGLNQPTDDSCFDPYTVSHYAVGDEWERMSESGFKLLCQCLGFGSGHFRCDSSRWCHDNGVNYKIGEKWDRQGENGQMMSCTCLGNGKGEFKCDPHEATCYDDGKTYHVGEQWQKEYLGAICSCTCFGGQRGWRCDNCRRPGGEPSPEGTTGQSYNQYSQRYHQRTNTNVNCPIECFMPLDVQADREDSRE

B1: BSFnano711G8FnB2 nanorods displaying the FnB-pIII fusion (fibronectin-binding repeats of Streptococcus pyogenes serum opacity factor Sof22 fused to pIII) (other)
chain: AAQPAGGHGPIVDIVEDTGTGVEGGAQNGVVSTQENKDPIVDITEDTQPGMSGSNDATVVEEDTTPQRPDVLVGGQSDPIDITEDTQPGMSGSNDATVVEEDTVPKRPDILVGGQSDPIDITEDTQPGMSGSNDATVIEEDTKPKRFFHFDNEAAAPGGAETVESCLAKPHTENSFTNVWKDDKTLDRYANYEGCLWNATGVVVCTGDETQCYGTWVPIGLAIPENEGGGSEGGGSEGGGSEGGGTKPPEYGDRPIPGYTYINPLDGTYPPGTEQNPANPNPSLEESQPLNTFMFQNNRFRNRQGALTVYTGTVTQGTDPVKTYYQYTPVSSKAMYDAYWNGKFRDCAFHSGFNEDPFVCEYQGQSSDLPQPPVNAGGGSGGGSGGGSEGGGSEGGGSEGGGSEGGGSGGGSGSGDFDYEKMANANKGAMTENADENALQSDAKGKLDSVATDYGAAIDGFIGDVSGLANGNGATGDFAGSNSQMAQVGDGDNSPLMNNFRQYLPSLPQSVECRPFVFGAGKPYEFSIDCDKINLFRGVFAFLLYVATFMYVFSTFANILRNKES
For B1, the “fold improvement of LOD against FnB nanorods of the phage system (Sattar et al., 2015)” value was 160 fold.
